Experimental findings from the supplement of paper PMC10219994 are described below.

The chains are these.
B1: library; a variant is named by its letters at N, in order (parent)
chain: GAGACCGCAACTGAAAAGTTGTGGNNNNNATAGTGAGTCGCTGCCTGCAAAGACACAACT

± gives the standard deviation of the averaged measurements.

The variants in this series derive from B1. The series can be described thus: ligation selection enrichment (abundance after / before one-round selection) (fold); higher = more template-directed ligation activity. The conditions noted are these: with T7Psub CACGGAUGCUAAUACGACUCACUAUA; MgCl2 25 mM; 42 °C; 4 h; pH 8.5. How it is done: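 Lib-N5 ligase ribozyme library: five randomized core nucleotides (including the GGA motif of N8-1) within the fixed N8-1 ribozyme flanks, transcribed by T7 RNA polymerase with a 5'-triphosphate. The library (0.75 uM) was reacted with substrate T7Psub (6 uM) in 50 mM EPPS pH 8.5 with 25 mM MgCl2 at 42 C for 4 h. Ligated products were PAGE-purified, reverse transcribed and MiSeq sequenced; enrichment = abundance after selection / abundance before selection, with two independent replicates. The full transcript is built from the printed template flanks.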
GAGACCGCAACTGAAAAGTTGTGGCCCCAATAGTGAGTCGCTGCCTGCAAAGACACAACT: the ligation selection enrichment was 0.14 ± 0.0052. The result for GAGACCGCAACTGAAAAGTTGTGGACAATATAGTGAGTCGCTGCCTGCAAAGACACAACT reads 3.6 ± 0.37.

As to GAGACCGCAACTGAAAAGTTGTGGACAACATAGTGAGTCGCTGCCTGCAAAGACACAACT, the ligation selection enrichment is 0.224 ± 0.024. Turning to GAGACCGCAACTGAAAAGTTGTGGACAAAATAGTGAGTCGCTGCCTGCAAAGACACAACT, the ligation selection enrichment is 0.227 ± 0.0041. The result for GAGACCGCAACTGAAAAGTTGTGGACAAGATAGTGAGTCGCTGCCTGCAAAGACACAACT reads 0.442 ± 0.0085; that for GAGACCGCAACTGAAAAGTTGTGGTCCCAATAGTGAGTCGCTGCCTGCAAAGACACAACT, 0.209 ± 0.054; that for GAGACCGCAACTGAAAAGTTGTGGTCCCCATAGTGAGTCGCTGCCTGCAAAGACACAACT, 0.279 ± 0.026. The result for GAGACCGCAACTGAAAAGTTGTGGGCACCATAGTGAGTCGCTGCCTGCAAAGACACAACT reads 0.153 ± 0.024; that for GAGACCGCAACTGAAAAGTTGTGGGCACAATAGTGAGTCGCTGCCTGCAAAGACACAACT, 0.175 ± 0.0085; that for GAGACCGCAACTGAAAAGTTGTGGGCACGATAGTGAGTCGCTGCCTGCAAAGACACAACT, 0.521 ± 0.053. The result for GAGACCGCAACTGAAAAGTTGTGGGCACTATAGTGAGTCGCTGCCTGCAAAGACACAACT reads 0.555 ± 0.18; that for GAGACCGCAACTGAAAAGTTGTGGACACGATAGTGAGTCGCTGCCTGCAAAGACACAACT, 0.497 ± 0.035; that for GAGACCGCAACTGAAAAGTTGTGGACACTATAGTGAGTCGCTGCCTGCAAAGACACAACT, 0.474 ± 0.18.

As for GAGACCGCAACTGAAAAGTTGTGGACACCATAGTGAGTCGCTGCCTGCAAAGACACAACT, the ligation selection enrichment was 0.132 ± 0.0051. Consider GAGACCGCAACTGAAAAGTTGTGGACACAATAGTGAGTCGCTGCCTGCAAAGACACAACT, for which the ligation selection enrichment was determined as 0.134 ± 0.024. GAGACCGCAACTGAAAAGTTGTGGGCAAAATAGTGAGTCGCTGCCTGCAAAGACACAACT: the ligation selection enrichment worked out at 0.304 ± 0.025.

For GAGACCGCAACTGAAAAGTTGTGGGCAATATAGTGAGTCGCTGCCTGCAAAGACACAACT, the ligation selection enrichment worked out at 4.77 ± 1.7. The result for GAGACCGCAACTGAAAAGTTGTGGGCAAGATAGTGAGTCGCTGCCTGCAAAGACACAACT reads 0.562 ± 0.043; that for GAGACCGCAACTGAAAAGTTGTGGGCAACATAGTGAGTCGCTGCCTGCAAAGACACAACT, 0.281 ± 0.015.

Turning to GAGACCGCAACTGAAAAGTTGTGGCCATGATAGTGAGTCGCTGCCTGCAAAGACACAACT, the ligation selection enrichment is 0.166 ± 0.043. Take GAGACCGCAACTGAAAAGTTGTGGCCATCATAGTGAGTCGCTGCCTGCAAAGACACAACT: the ligation selection enrichment came out at 0.121 ± 0.0018. Regarding GAGACCGCAACTGAAAAGTTGTGGCCATAATAGTGAGTCGCTGCCTGCAAAGACACAACT, the ligation selection enrichment stood at 0.14 ± 0.025. The result for GAGACCGCAACTGAAAAGTTGTGGCCATTATAGTGAGTCGCTGCCTGCAAAGACACAACT reads 0.223 ± 0.041.

As for GAGACCGCAACTGAAAAGTTGTGGTCAATATAGTGAGTCGCTGCCTGCAAAGACACAACT, the ligation selection enrichment is 6.44 ± 2.6. The figure for GAGACCGCAACTGAAAAGTTGTGGTCAAGATAGTGAGTCGCTGCCTGCAAAGACACAACT is 0.718 ± 0.12.

Turning to GAGACCGCAACTGAAAAGTTGTGGTCAACATAGTGAGTCGCTGCCTGCAAAGACACAACT, the ligation selection enrichment was found to be 0.48 ± 0.05. The result for GAGACCGCAACTGAAAAGTTGTGGTCAAAATAGTGAGTCGCTGCCTGCAAAGACACAACT reads 0.317 ± 0.039. The figure for GAGACCGCAACTGAAAAGTTGTGGACCCAATAGTGAGTCGCTGCCTGCAAAGACACAACT is 0.152 ± 0.013. The figure for GAGACCGCAACTGAAAAGTTGTGGACCCCATAGTGAGTCGCTGCCTGCAAAGACACAACT is 0.194 ± 0.0053. GAGACCGCAACTGAAAAGTTGTGGGCATTATAGTGAGTCGCTGCCTGCAAAGACACAACT: the ligation selection enrichment was 0.257 ± 0.043. The figure for GAGACCGCAACTGAAAAGTTGTGGGCATCATAGTGAGTCGCTGCCTGCAAAGACACAACT is 0.168 ± 0.016.

Regarding GAGACCGCAACTGAAAAGTTGTGGGCATAATAGTGAGTCGCTGCCTGCAAAGACACAACT, the ligation selection enrichment was determined as 0.204 ± 0.0065. Take GAGACCGCAACTGAAAAGTTGTGGGCATGATAGTGAGTCGCTGCCTGCAAAGACACAACT: the ligation selection enrichment was determined as 0.335 ± 0.012. The figure for GAGACCGCAACTGAAAAGTTGTGGTCAGAATAGTGAGTCGCTGCCTGCAAAGACACAACT is 0.474 ± 0.043; for GAGACCGCAACTGAAAAGTTGTGGTCAGGATAGTGAGTCGCTGCCTGCAAAGACACAACT it is 0.337 ± 0.062. For the variant GAGACCGCAACTGAAAAGTTGTGGTCAGCATAGTGAGTCGCTGCCTGCAAAGACACAACT, the ligation selection enrichment came to 0.153 ± 0.017.

GAGACCGCAACTGAAAAGTTGTGGTCAGTATAGTGAGTCGCTGCCTGCAAAGACACAACT: the ligation selection enrichment came to 0.161 ± 0.087. As for GAGACCGCAACTGAAAAGTTGTGGTCATAATAGTGAGTCGCTGCCTGCAAAGACACAACT, the ligation selection enrichment was 0.274 ± 0.026.

On to GAGACCGCAACTGAAAAGTTGTGGTCATTATAGTGAGTCGCTGCCTGCAAAGACACAACT, for which the ligation selection enrichment stood at 0.327 ± 0.04. The figure for GAGACCGCAACTGAAAAGTTGTGGTCATGATAGTGAGTCGCTGCCTGCAAAGACACAACT is 0.1699 ± 0.0013; for GAGACCGCAACTGAAAAGTTGTGGTCATCATAGTGAGTCGCTGCCTGCAAAGACACAACT it is 0.166 ± 0.002. The figure for GAGACCGCAACTGAAAAGTTGTGGCCCAAATAGTGAGTCGCTGCCTGCAAAGACACAACT is 0.134 ± 0.007; for GAGACCGCAACTGAAAAGTTGTGGCCCATATAGTGAGTCGCTGCCTGCAAAGACACAACT it is 0.674 ± 0.13. The figure for GAGACCGCAACTGAAAAGTTGTGGCCCACATAGTGAGTCGCTGCCTGCAAAGACACAACT is 0.168 ± 0.017; for GAGACCGCAACTGAAAAGTTGTGGCCCAGATAGTGAGTCGCTGCCTGCAAAGACACAACT it is 0.145 ± 0.0045.
